Some results are limits rather than exact numbers.

2 molecules from patent US20240309113A1 (SUZHOU TRANSCENTA THERAPEUTICS, published 2024) can be followed below.

One test concerns the target T1, Recombinant Human MASP-1 (human, UniProt P48740 20-699, limits assumed).
T1 construct: Bought protein, construct not described
T1 sequence (looked up): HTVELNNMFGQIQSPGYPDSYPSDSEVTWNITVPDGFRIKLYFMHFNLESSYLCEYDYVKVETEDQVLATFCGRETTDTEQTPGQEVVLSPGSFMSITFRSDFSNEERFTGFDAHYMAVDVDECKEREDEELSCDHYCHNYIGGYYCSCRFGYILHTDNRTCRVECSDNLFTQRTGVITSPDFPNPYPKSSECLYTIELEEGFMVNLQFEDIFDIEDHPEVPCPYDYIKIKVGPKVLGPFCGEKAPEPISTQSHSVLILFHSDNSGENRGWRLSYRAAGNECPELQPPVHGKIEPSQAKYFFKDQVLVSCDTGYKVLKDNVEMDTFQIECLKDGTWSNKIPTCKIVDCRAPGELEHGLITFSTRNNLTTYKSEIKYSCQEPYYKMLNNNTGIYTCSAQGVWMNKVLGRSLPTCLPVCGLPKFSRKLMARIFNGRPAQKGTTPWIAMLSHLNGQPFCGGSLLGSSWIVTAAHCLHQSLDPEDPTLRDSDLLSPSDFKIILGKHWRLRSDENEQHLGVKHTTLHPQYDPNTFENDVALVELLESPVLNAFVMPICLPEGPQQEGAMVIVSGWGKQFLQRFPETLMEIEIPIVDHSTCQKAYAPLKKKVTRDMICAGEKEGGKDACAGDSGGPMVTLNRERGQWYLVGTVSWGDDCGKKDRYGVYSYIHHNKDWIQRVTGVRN
Nature of the test: ELISA; plate coated with recombinant human MASP-1, mouse anti-human IgG4 HRP, OD450. In general terms: An ELISA detects its analyte on a solid surface through an enzyme-linked reagent.

Another test concerns the target T2, Recombinant Human MASP-3 (human, UniProt P48740-2 20-728, limits assumed).
T2 construct: Bought protein, construct not described
T2 sequence (looked up): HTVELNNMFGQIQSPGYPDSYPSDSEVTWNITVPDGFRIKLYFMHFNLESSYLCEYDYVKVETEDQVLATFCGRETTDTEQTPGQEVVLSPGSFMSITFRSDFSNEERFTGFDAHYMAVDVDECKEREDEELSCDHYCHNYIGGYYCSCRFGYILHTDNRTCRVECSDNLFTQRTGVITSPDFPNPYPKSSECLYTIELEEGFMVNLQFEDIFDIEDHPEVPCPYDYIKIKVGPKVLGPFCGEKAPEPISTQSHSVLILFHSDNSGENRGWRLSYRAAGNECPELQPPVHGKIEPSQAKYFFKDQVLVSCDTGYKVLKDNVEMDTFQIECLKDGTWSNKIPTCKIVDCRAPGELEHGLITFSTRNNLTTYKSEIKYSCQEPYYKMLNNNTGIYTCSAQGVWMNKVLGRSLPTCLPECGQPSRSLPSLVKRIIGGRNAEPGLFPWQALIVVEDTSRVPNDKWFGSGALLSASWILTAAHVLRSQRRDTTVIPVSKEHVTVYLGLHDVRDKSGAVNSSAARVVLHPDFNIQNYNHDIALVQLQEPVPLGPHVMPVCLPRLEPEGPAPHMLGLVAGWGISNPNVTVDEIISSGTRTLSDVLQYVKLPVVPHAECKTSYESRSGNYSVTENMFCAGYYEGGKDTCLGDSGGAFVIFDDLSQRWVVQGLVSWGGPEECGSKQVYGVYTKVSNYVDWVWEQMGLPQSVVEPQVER
Put plainly: ELISA; plate coated with recombinant human MASP-3, mouse anti-human IgG4 HRP, OD450.

Test [1] deals with T3, Human FcRn (FCGRT&B2M) protein with His tag (human, UniProt P55899 24-297; P61769 21-119).
T3 construct: Carries a His tag (held on Ni-NTA biosensors)
Nature of the test: BLI (ForteBio), His-tagged human FcRn on Ni-NTA biosensor, antibody in solution (500, 167, 56, 19 nM).

Test [2] addresses T4, human MASP-2 protein (recombinant, full-length, C-terminal tag) (human, UniProt O00187 16-686).
T4 construct: The protein was secreted and purified on an anti-FLAG or anti-HIS column; also called hMASP-2; Full-length human MASP-2 protein; not shown: C-terminal HIS-tag or FLAG-tag
Put plainly: BLI (ForteBio Octet RED96), antibody on Protein A biosensor, human MASP-2 in solution (100, 50, 25 nM). In general terms: BLI is a label-free optical method that tracks binding on a fibre tip over time.

Test [3] has as its target T4, human MASP-2 protein (recombinant, …). Put plainly: ELISA; plate coated with human MASP2 (1 ug/ml), serially diluted antibody, mouse anti-human IgG4 Fc HRP, OD450.
The target of another test is T5, Cyno MASP2.
T5 construct: Recombinant coated protein; distinct from m29 (native MASP-2 in cynomolgus serum); also called cynomolgus MASP-2 (recombinant, generated in house)
Nature of the test: ELISA; plate coated with cynomolgus MASP2 (1 ug/ml), serially diluted antibody, mouse anti-human IgG4 Fc HRP, OD450.

Test [4] concerns the target T6, Recombinant Human Complement Component C1s (human, UniProt P09871 16-688, limits assumed).
T6 construct: Bought protein, construct not described; also called human C1s
T6 sequence (looked up): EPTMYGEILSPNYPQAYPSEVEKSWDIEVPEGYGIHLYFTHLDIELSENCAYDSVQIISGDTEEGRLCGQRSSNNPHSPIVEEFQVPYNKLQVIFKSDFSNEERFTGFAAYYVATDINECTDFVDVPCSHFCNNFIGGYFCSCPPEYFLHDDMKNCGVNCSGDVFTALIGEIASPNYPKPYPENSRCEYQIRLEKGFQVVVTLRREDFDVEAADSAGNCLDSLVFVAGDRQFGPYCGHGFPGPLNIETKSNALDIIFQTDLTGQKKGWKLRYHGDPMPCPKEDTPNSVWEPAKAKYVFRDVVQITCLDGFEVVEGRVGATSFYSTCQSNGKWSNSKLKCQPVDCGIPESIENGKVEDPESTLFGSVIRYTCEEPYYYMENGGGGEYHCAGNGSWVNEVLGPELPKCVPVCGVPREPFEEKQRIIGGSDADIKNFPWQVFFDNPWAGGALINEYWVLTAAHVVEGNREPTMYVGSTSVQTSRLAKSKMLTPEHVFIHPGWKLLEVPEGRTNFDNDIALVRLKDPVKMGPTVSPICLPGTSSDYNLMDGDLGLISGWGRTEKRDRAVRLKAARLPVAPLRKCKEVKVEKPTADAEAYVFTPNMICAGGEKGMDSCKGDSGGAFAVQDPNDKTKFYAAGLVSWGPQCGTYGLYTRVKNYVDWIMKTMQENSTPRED
Put plainly: ELISA; plate coated with recombinant human C1s, serially diluted antibody, mouse anti-human IgG4 HRP, OD450 (fit value printed for a flat curve).

The target of the next test is T7, Rat MASP2 (rat, UniProt Q9JJS8).
T7 construct: purchased protein coated on the ELISA plate at 1 ug/ml
Nature of the test: ELISA; plate coated with rat MASP2 (1 ug/ml), serially diluted antibody, mouse anti-human IgG4 Fc HRP, OD450 (fit value printed for a flat curve).

For the next test, the target named is T8, Mouse MASP2 (mouse, UniProt Q91WP0).
T8 construct: purchased protein coated on the ELISA plate at 1 ug/ml
Nature of the test: ELISA; plate coated with mouse MASP2 (1 ug/ml), serially diluted antibody, mouse anti-human IgG4 Fc HRP, OD450 (fit value printed for a flat curve).

Test [5] has as its target T4, human MASP-2 protein (recombinant, …). Nature of the test: ELISA; plate coated with human MASP2, serially diluted antibody, anti-human IgG4 HRP, OD at 450nm; concentration axis printed as 'Antibody conc.(nM)'.
Test [6] has as its target T3, Human FcRn (FCGRT&B2M) protein with His …. Put plainly: BLI (ForteBio), His-tagged human FcRn on Ni-NTA biosensor.

T4 sequence (O00187 16-686): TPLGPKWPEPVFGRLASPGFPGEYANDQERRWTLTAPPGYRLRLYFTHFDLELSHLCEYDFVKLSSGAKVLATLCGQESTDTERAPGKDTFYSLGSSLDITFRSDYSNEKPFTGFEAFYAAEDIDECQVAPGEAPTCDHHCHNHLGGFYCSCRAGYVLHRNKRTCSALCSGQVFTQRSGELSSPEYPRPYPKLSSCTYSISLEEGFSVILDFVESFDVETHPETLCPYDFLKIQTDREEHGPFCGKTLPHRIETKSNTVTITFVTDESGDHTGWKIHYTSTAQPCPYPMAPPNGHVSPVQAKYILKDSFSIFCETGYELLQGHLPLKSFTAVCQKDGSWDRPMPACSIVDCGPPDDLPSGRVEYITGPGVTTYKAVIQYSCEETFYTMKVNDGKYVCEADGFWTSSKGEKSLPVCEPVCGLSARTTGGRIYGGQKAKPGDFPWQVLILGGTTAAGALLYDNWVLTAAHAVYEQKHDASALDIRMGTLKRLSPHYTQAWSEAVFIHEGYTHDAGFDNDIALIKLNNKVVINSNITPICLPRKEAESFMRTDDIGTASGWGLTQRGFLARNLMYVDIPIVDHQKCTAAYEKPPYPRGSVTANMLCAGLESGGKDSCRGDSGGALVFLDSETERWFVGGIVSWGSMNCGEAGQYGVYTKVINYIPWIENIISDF
T3 sequence (P55899 24-297 limits assumed, chain 1 of 2): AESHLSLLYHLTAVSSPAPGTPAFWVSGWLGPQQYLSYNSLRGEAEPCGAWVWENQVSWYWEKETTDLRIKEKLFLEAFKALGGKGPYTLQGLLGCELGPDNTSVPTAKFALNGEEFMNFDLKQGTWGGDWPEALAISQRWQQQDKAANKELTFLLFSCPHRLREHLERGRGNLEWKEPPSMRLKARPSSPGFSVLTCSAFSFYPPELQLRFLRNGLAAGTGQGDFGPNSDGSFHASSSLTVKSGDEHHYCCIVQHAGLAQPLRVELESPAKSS
T3 sequence (P61769 21-119 limits assumed, chain 2 of 2): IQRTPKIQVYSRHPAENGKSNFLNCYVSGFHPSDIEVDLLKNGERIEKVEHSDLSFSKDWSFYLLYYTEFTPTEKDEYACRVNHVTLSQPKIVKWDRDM
T7 sequence (Q9JJS8 20-685 limits assumed): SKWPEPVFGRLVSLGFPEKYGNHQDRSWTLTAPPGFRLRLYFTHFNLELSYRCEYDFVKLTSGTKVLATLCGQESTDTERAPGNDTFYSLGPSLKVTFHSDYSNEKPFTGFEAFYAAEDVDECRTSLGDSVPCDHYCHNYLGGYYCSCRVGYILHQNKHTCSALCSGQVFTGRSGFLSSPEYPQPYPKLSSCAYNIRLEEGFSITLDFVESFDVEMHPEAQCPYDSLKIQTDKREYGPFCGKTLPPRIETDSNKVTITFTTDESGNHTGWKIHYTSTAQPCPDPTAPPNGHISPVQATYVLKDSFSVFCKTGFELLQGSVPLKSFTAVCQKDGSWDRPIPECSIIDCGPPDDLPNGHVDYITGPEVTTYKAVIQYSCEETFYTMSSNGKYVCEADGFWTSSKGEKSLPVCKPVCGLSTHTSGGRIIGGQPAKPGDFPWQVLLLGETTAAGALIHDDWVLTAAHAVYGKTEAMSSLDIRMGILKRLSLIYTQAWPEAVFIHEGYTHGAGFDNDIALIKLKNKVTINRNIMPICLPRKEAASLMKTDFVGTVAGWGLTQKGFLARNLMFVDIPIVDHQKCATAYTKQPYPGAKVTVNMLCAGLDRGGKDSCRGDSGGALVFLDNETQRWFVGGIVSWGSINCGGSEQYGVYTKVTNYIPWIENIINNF
T5 sequence (MASP-2 polypeptide, as listed by the source limits assumed): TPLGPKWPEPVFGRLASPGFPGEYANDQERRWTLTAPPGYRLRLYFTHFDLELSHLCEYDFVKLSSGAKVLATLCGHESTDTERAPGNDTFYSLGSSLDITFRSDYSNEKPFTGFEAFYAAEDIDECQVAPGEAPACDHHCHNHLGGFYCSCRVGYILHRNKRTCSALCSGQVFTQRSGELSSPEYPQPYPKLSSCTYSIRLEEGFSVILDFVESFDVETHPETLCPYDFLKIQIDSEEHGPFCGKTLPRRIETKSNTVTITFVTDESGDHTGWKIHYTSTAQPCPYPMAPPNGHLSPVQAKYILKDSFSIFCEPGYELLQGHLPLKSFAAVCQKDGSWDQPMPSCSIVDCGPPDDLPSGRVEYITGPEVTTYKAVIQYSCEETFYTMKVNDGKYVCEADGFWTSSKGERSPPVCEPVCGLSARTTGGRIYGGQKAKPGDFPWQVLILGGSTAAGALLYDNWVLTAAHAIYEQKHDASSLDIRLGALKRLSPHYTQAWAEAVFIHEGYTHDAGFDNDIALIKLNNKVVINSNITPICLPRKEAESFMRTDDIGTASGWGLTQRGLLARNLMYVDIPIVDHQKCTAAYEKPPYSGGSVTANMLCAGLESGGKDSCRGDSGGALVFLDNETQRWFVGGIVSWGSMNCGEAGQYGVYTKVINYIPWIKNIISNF
T8 sequence (Q91WP0 20-685 limits assumed): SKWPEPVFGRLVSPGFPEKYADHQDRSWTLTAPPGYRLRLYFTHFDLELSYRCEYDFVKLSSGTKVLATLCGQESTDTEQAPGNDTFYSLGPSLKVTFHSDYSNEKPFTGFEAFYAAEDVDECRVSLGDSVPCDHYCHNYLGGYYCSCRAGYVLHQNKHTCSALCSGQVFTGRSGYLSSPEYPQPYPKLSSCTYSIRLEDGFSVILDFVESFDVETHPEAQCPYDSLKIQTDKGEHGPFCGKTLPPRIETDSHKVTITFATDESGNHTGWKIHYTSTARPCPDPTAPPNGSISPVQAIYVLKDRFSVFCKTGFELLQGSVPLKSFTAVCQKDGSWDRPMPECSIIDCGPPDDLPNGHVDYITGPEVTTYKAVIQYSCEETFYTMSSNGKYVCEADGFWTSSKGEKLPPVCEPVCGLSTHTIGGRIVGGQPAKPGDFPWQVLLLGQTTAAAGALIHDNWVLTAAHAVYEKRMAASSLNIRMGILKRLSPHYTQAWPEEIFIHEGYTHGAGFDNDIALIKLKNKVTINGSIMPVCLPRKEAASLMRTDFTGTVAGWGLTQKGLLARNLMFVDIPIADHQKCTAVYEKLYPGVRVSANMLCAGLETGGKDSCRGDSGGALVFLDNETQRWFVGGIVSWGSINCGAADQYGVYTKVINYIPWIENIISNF

B1: 129C10 HaLa (129C10-hu) (antibody, human IgG4)
VH: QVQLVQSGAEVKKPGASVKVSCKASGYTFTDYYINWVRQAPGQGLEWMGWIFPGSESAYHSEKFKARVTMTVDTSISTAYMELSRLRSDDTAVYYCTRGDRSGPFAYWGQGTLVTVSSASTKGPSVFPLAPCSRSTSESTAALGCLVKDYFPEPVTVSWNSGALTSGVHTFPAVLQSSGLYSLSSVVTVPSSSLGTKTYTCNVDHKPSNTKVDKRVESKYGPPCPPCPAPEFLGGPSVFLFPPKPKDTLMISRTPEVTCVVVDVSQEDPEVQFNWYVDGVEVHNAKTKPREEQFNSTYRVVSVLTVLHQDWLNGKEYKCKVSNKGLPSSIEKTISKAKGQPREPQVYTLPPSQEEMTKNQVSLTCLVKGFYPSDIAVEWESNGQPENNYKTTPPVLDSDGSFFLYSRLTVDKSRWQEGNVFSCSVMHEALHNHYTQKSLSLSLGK
VL: DVVMTQSPLSLPVTLGQPASISCKSSQSLLYSNGKTYLNWLQQRPGQSPRRLIYLVSKLDSGVPDRFSGSGSGTDFTLKISRVEAEDVGVYYCVQVTHFPFTFGQGTKLEIKRTVAAPSVFIFPPSDEQLKSGTASVVCLLNNFYPREAKVQWKVDNALQSGNSQESVTEQDSKDSTYSLSSTLTLSKADYEKHKVYACEVTHQGLSSPVTKSFNRGEC
notes: Humanized; also called 129C10-hu-WT; Hu129C10_HaLa-hIgG4
One may read the Kd as the free concentration of one partner at which half of the binding sites on the other are occupied at equilibrium, for simple one-to-one binding. Usually koff stands for a measure of how fast the partners let go of each other. What is called kon is the second-order rate constant of association. What is called EC50 is the concentration at which the effect is half-maximal. Consider B1, for which the binding result with Recombinant Human MASP-1 and in the test with Recombinant Human MASP-3 was “no binding (tested: about 2 ug/ml)” in each case. The Kd in test [1] is 6.1 nM; in test [2], less than 0.001 nM. Further, the koff in test [1] was 0.00317 s⁻¹; in [2], less than 1e-07 s⁻¹. For the same molecule, the values for the kon in [1] and in [2] were 520000 M⁻¹ s⁻¹ and 35300 M⁻¹ s⁻¹, respectively. The EC50 is 0.0127 µg/mL in test [3]; 0.0111 µg/mL in the test with Cyno MASP2; roughly 1.65 µg/mL in test [4]; 17.2 µg/mL with Rat MASP2; roughly 672 µg/mL with Mouse MASP2; 0.0162 nM in test [5].

B2: 129C10-hu-YTE (Hu129C10 hIgG4_YTE kappa) (antibody)
heavy: QVQLVQSGAEVKKPGASVKVSCKASGYTFTDYYINWVRQAPGQGLEWMGWIFPGSESAYHSEKFKARVTMTVDTSISTAYMELSRLRSDDTAVYYCTRGDRSGPFAYWGQGTLVTVSSASTKGPSVFPLAPCSRSTSESTAALGCLVKDYFPEPVTVSWNSGALTSGVHTFPAVLQSSGLYSLSSVVTVPSSSLGTKTYTCNVDHKPSNTKVDKRVESKYGPPCPPCPAPEFLGGPSVFLFPPKPKDTLYITREPEVTCVVVDVSQEDPEVQFNWYVDGVEVHNAKTKPREEQFNSTYRVVSVLTVLHQDWLNGKEYKCKVSNKGLPSSIEKTISKAKGQPREPQVYTLPPSQEEMTKNQVSLTCLVKGFYPSDIAVEWESNGQPENNYKTTPPVLDSDGSFFLYSRLTVDKSRWQEGNVFSCSVMHEALHNHYTQKSLSLSLGK
light: B1 VL
notes: also called Hu129C10_HaLa-hIgG4 with amino acid substitutions M252Y/S254T/T256E [YTE]
Consider B2, for which, in test [6], the “fold increase of binding affinity against 129C10-hu” value came out at 3 fold. In [1], this molecule yielded a Kd of 1.88 nM, a koff of 0.00101 s⁻¹ and a kon of 536000 M⁻¹ s⁻¹.
